What was measured:
[1] = system: alpha-1 antitrypsin (native, not heat-inactivated)
[2] = system: heat-inactivated alpha-1 antitrypsin

## Elastase
[1]
  elastase activity: hydrolysis of N-Succinyl-Ala-Ala-Ala-p-nitroanalide, absorbance at 410 nm: Combining native (NOT heat-inactivated) AAT ablated elastase processing of the N-Succinyl-Ala-Ala-Ala-p-nitroanalide substrate and blocked the increase in A410 nm
[2]
  elastase activity: hydrolysis of N-Succinyl-Ala-Ala-Ala-p-nitroanalide, absorbance at 410 nm: combining HIAAT with elastase produced a curve similar to that of elastase alone. This demonstrated that HIAAT possessed no detectable elastase neutralizing activity

From patent US20100144630
